The chains are these.
B1: Fab-Knob+CEA-Hole (101) (bispecific antibody, human IgG4 S228P, kappa, F234A L235A)
heavy: EVKLLESGGGLVQPKGSLKLSCAASGFTFNTYAMNWVRQAPGKGLEWVARIRSKYNNYATYYADSVKDRFTISRDDSQSILYLQMNNLKTEDTAMYYCVRHGNFGNSYVSWFAYWGQGTLVTVSSASTKGPSVFPLAPCSRSTSESTAALGCLVKDYFPEPVTVSWNSGALTSGVHTFPAVLQSSGLYSLSSVVTVPSSSLGTKTYTCNVDHKPSNTKVDKRVESKYGPPCPPCPAPEAAGGPSVFLFPPKPKDTLMISRTPEVTCVVVDVSQEDPEVQFNWYVDGVEVHNAKTKPREEQFNSTYRVVSVLTVLHQDWLNGKEYKCKVSNKGLPSSIEKTISKAKGQPREPQVYTLPPCQEEMTKNQVSLWCLVKGFYPSDIAVEWESNGQPENNYKTTPPVLDSDGSFFLYSRLTVDKSRWQEGNVFSCSVMHEALHNHYTQKSLSLSL
chain: EVQLVESGGGFVQAGESLTLSCTSSTLTFTPYRMAWYRQAPGKQRDLVADISSGDGRTTNYADFAKGRFTISRDNIKNTVFLRMTNLKPEDTAVYYCNTFVSFVGIARSWGQGTQVTVSSESKYGPPCPPCPAPEAAGGPSVFLFPPKPKDTLMISRTPEVTCVVVDVSQEDPEVQFNWYVDGVEVHNAKTKPREEQFNSTYRVVSVLTVLHQDWLNGKEYKCKVSNKGLPSSIEKTISKAKGQPREPQVCTLPPSQEEMTKNQVSLSCAVKGFYPSDIAVEWESNGQPENNYKTTPPVLDSDGSFFLVSRLTVDKSRWQEGNVFSCSVMHEALHNRFTQKSLSLSL
light: QAVVTQESALTTSPGETVTLTCRSSTGAVTTSNYANWVQEKPDHLFTGLIGGTNKRAPGVPARFSGSLIGDKAALTITGAQTEDEAIYFCALWYSNLWVFGGGTKVEIKRTVAAPSVFIFPPSDEQLKSGTASVVCLLNNFYPREAKVQWKVDNALQSGNSQESVTEQDSKDSTYSLSSTLTLSKADYEKHKVYACEVTHQGLSSPVTKSFNRGEC
notes: Anti-CD3 TA1 Fab + anti-CEA VHH C17 on human IgG4 knob-into-hole Fc, kappa light chain
B2: Fab-Knob+Hole-CEA (103) (bispecific antibody, human IgG4 S228P, kappa, F234A L235A)
heavy: B1 heavy
chain: ESKYGPPCPPCPAPEAAGGPSVFLFPPKPKDTLMISRTPEVTCVVVDVSQEDPEVQFNWYVDGVEVHNAKTKPREEQFNSTYRVVSVLTVLHQDWLNGKEYKCKVSNKGLPSSIEKTISKAKGQPREPQVCTLPPSQEEMTKNQVSLSCAVKGFYPSDIAVEWESNGQPENNYKTTPPVLDSDGSFFLVSRLTVDKSRWQEGNVFSCSVMHEALHNRFTQKSLSLSLGGGGSGGGGSEVQLVESGGGFVQAGESLTLSCTSSTLTFTPYRMAWYRQAPGKQRDLVADISSGDGRTTNYADFAKGRFTISRDNIKNTVFLRMTNLKPEDTAVYYCNTFVSFVGIARSWGQGTQVTVSS
light: B1 light
notes: Anti-CD3 TA1 Fab + anti-CEA VHH C17 on human IgG4 knob-into-hole Fc
B3: CEA-Fab-Knob-+Hole (201) (bispecific antibody, human IgG4 S228P, kappa, F234A L235A)
heavy: B1 heavy
chain: ESKYGPPCPPCPAPEAAGGPSVFLFPPKPKDTLMISRTPEVTCVVVDVSQEDPEVQFNWYVDGVEVHNAKTKPREEQFNSTYRVVSVLTVLHQDWLNGKEYKCKVSNKGLPSSIEKTISKAKGQPREPQVCTLPPSQEEMTKNQVSLSCAVKGFYPSDIAVEWESNGQPENNYKTTPPVLDSDGSFFLVSRLTVDKSRWQEGNVFSCSVMHEALHNRFTQKSLSLSL
light: QAVVTQESALTTSPGETVTLTCRSSTGAVTTSNYANWVQEKPDHLFTGLIGGTNKRAPGVPARFSGSLIGDKAALTITGAQTEDEAIYFCALWYSNLWVFGGGTKVEIKRTVAAPSVFIFPPSDEQLKSGTASVVCLLNNFYPREAKVQWKVDNALQSGNSQESVTEQDSKDSTYSLSSTLTLSKADYEKHKVYACEVTHQGLSSPVTKSFNRGECGGGGSGGGGSEVQLVESGGGFVQAGESLTLSCTSSTLTFTPYRMAWYRQAPGKQRDLVADISSGDGRTTNYADFAKGRFTISRDNIKNTVFLRMTNLKPEDTAVYYCNTFVSFVGIARSWGQGTQVTVSS
notes: VHH linked to the CL of the Fab; human IgG4 knob-into-hole Fc
B4: Fab-Knob-CEA+Hole (102) (bispecific antibody, human IgG4 S228P, kappa, F234A L235A)
heavy: EVKLLESGGGLVQPKGSLKLSCAASGFTFNTYAMNWVRQAPGKGLEWVARIRSKYNNYATYYADSVKDRFTISRDDSQSILYLQMNNLKTEDTAMYYCVRHGNFGNSYVSWFAYWGQGTLVTVSSASTKGPSVFPLAPCSRSTSESTAALGCLVKDYFPEPVTVSWNSGALTSGVHTFPAVLQSSGLYSLSSVVTVPSSSLGTKTYTCNVDHKPSNTKVDKRVESKYGPPCPPCPAPEAAGGPSVFLFPPKPKDTLMISRTPEVTCVVVDVSQEDPEVQFNWYVDGVEVHNAKTKPREEQFNSTYRVVSVLTVLHQDWLNGKEYKCKVSNKGLPSSIEKTISKAKGQPREPQVYTLPPCQEEMTKNQVSLWCLVKGFYPSDIAVEWESNGQPENNYKTTPPVLDSDGSFFLYSRLTVDKSRWQEGNVFSCSVMHEALHNHYTQKSLSLSLGGGGSGGGGSEVQLVESGGGFVQAGESLTLSCTSSTLTFTPYRMAWYRQAPGKQRDLVADISSGDGRTTNYADFAKGRFTISRDNIKNTVFLRMTNLKPEDTAVYYCNTFVSFVGIARSWGQGTQVTVSS
chain: B3 chain
light: B1 light
notes: as for B2
B5: 302 (TA3), configuration of FIG. 1W (bispecific antibody, IgG4)
heavy: EVQLVESGGGLVQPGGSLRLSCAASGYSFTGYTMNWVRQAPGKGLEWVALINPYKGVSTYNQKFKDRFTISVDKSKNTAYLQMNSLRAEDTAVYYCARSGYYGDSDWYFDVWGQGTLVTVSSASTKGPSVFPLAPCSRSTSESTAALGCLVKDYFPEPVTVSWNSGALTSGVHTFPAVLQSSGLYSLSSVVTVPSSSLGTKTYTCNVDHKPSNTKVDKRVESKYGPPCPPCPAPEAAGGPSVFLFPPKPKDTLMISRTPEVTCVVVDVSQEDPEVQFNWYVDGVEVHNAKTKPREEQFNSTYRVVSVLTVLHQDWLNGKEYKCKVSNKGLPSSIEKTISKAKGQPREPQVYTLPPCQEEMTKNQVSLWCLVKGFYPSDIAVEWESNGQPENNYKTTPPVLDSDGSFFLYSRLTVDKSRWQEGNVFSCSVMHEALHNHYTQKSLSLSL
chain: B1 chain
light: DIQMTQSPSSLSASVGDRVTITCRASQDIRNYLNWYQQKPGKAPKLLIYYTSRLESGVPSRFSGSGSGTDYTLTISSLQPEDFATYYCQQGNTLPWTFGQGTKVEIK
notes: chains put together from VH/VL, CH1, knob-Fc; IgG4, kappa; also called CEA-CD3 bispecific antibody 302; not shown: kappa light chain constant domain (CL)
B6: Knob+CEA-Fab-Hole (202) (bispecific antibody, human IgG4 S228P, kappa, F234A L235A)
chain: B3 chain with C131Y, S136C, S148W, A150L, V189Y, R217H, F218Y
heavy: B1 heavy with Y354C, C359S, W371S, L373A, Y412V, H440R, Y441F
light: B3 light
notes: as for B3

Substitutions are numbered along the chain they refer to. Values joined by “and” are separate entries in the source; they are usually repeats but may differ in a detail not shown here. Identical values can stand only once.

One experiment has as its target T1, human CD3 on Jurkat cells (human, UniProt P07766 23-207; P04234 22-171; P09693 23-182).
T1 construct: whole, on cells; CD3 complex as on Jurkat (Clone E6-1) cells; also called CD3 expressing cells (Jurkat)
The experiment in a line: FACS, Jurkat cells.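 Further: flow cytometric binding of bispecific antibodies to Jurkat T cells, threefold serial dilutions incubated half an hour in the cold, EC50 taken from the fitted binding curve.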
Broadly, the EC50 is the concentration needed to bring the measured effect to its halfway point. Low readings indicate greater potency, high ones weaker potency. Regarding B1, the EC50 is 6.28 µg/mL and 48.3 nM.
Same read-out and setting: with B2 the figure was 0.848 µg/mL and 6.52 nM; with B3, 0.312 µg/mL and 2.4 nM; with B4, 0.592 µg/mL and 4.55 nM.
Same read-out and setting: with B5 the figure was 1.4 µg/mL and 10.8 nM; with B6, 0.292 µg/mL and 2.25 nM.

A further experiment concerns the target T2, human CD3ε/δ (ACRO systems, CDD-H52W1) (human, UniProt P07766 23-126; P04234 22-105).
T2 construct: Bought protein; also called human CD3ϵ/CD3δ; human CD3 epsilon/delta antigen
Briefly: BLI, antibody captured, antigen in solution.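 Further: bispecific antibodies captured on AHIC biosensors to a 1.5 nm loading signal, in PBST with 0.02% detergent.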 Background: In BLI a coated tip is dipped into the sample, and binding shifts an interference pattern.
Procedure: The bispecific antibodies were diluted to 5 ag/ml, and 1.5 nm protein was coupled to the surface of the AHIC sensor chip through 0.02% PBST.
What is called Kd is a measure of binding affinity in units of concentration. A high value points to weaker binding. By koff is commonly meant the first-order rate constant of dissociation. The term kon denotes the second-order rate constant of association. B1 gave a Kd of 0.979 nM, a koff of 0.0004 s⁻¹ and a kon of 409000 M⁻¹ s⁻¹.
The corresponding values for B2 are 0.662 nM, 0.000233 s⁻¹ and 352000 M⁻¹ s⁻¹.
The corresponding values for B3 are 2.59 nM, 0.00046 s⁻¹ and 178000 M⁻¹ s⁻¹.
Turning to B4, the Kd is 0.984 nM, the koff came to 0.000327 s⁻¹ and the kon is 333000 M⁻¹ s⁻¹.
The corresponding values for B5 are 3.63 nM, 0.000879 s⁻¹ and 246000 M⁻¹ s⁻¹.
B6: the dissociation constant Kd came out at 3.9 nM, the koff worked out at 0.000866 s⁻¹ and the kon amounted to 222000 M⁻¹ s⁻¹.

These data come from patent publication US20240400715A1 (VIBRANT PHARMA, published 2024).
